Data as given in patent US20260217806A1 (H LUNDBECK A S, published 2026).

Target: brain derived alpha synuclein oligomers and fibrils (MSA and PD brain homogenates enriched for aggregated, … (UniProt P37840 1-140))
Experiment: ELISA on MSA and PD brain homogenates enriched for aggregated, insoluble alpha synuclein (data not shown)

EC50: 0.09 to 0.16 nM
B1: GM37 variant 2 (antibody, human IgG1, kappa, V domains shown)
VH: EVQLLESGGGLVQTGGSLRLSCAASGFTFSSYAMTWVRQAPGKGLEWVSAIRSQGDRTDYADSVKGRFTISRDNSQNTLYLQMNSLRAEDTAVYYCAKNWAPFDSWGQGTLVTVSS
VL: not shown
notes: VH 31 and VL 8 are firmly tied to the antibody; It is a human IgG1 kappa; also called GM37v2; GM37var2
